Measured values taken from patent US20250051821.
Changes are numbered by the printed parent chain.

T1: IFF05588
T1 chain: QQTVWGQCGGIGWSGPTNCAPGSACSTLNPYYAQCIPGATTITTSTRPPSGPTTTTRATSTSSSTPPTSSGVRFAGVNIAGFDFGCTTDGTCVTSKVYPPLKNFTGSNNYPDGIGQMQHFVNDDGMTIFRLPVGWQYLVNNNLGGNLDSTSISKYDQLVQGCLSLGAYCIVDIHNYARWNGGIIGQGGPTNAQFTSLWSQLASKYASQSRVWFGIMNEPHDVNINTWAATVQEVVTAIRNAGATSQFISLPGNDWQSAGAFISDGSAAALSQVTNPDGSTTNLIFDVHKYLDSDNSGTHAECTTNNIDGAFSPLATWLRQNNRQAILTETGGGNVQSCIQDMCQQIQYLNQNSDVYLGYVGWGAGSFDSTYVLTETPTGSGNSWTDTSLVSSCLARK

B1: IFF21375 (protein)
chain: QTLDKPALTPNLDYLLQGNTDNLQPAASHYGKWEDGWIPADCKSIAEDQQLNPTDFEVYDVFYGDCGDAWSFCRHKSSSDSIDTIIDTFGRVPVRMRSWVRHVLTIPGDNWAFNSNGNIAFSGTTSQNLDVALHETGHSLDLLGAYGETLSSSQTWLDNYNQDPNVPDEYARSNQVENVAQNTVVGIYDKVVPGGFGSVQPNWGNIFHQYSTLQSMAKDTIIPGGTCDRHLANSETVSMASTQSNATRMARIRRVKPSHSFRQTYDNIVEGFTPFSTKDTCHFSWA
B2: IFF21365 (protein)
chain: DDTLSKPALTDNLDYLLDGNVASLPSNGGPYWGKWEDGLMPADCKSIAEDQGLNPTDFEVWDIFFDDCQDGWSFCRHKDSADSFETLVDTFGRVPVRMRSWVRHVLTIPGDNWAFNSNGNICFSGTTSQNLDVALHETGHSLDLLGAYGDGALSSSQEWLDAYNADSNVPDNYARSNQVENVAQNTVVAVYDKNVPGGFPGVQTDYAKIQNQYTLVEDKAGDQIVPGGTCDRHLENSETVPMSGSSAKRDIRIKGRAVGAGAVTHDWKFKGTYSNIVTDFEPFNSKDFHH
B3: IFF21349 (protein)
chain: VLDKPVIQPNFPGGGLDSLSQGLLDNLAPTQSTWDEWGAGWIPQDCKTLAEGSGFSALDITTFNIYYTDCADAWVFCRHKDAPLSEIDMIDLFGRMPVRMRDFVRHIIAVPGNPSAGSSGDNIQMNGGLPITVFVHETGHSLDSHAFSEPFSLSQAWIDAYNQDSAVPDSYAQTSQQENFAQETVVALYDKVVPGGVGTIQPNWNAIFHAYATLQGYIGDVIIPGGTCVNRLTNSAPVPQSNSAKVRIASEKPDVTLRGNVTVLESIPMGSSIELTHFDAEGKPTGRSTVNLG
B4: IFF21352 (protein)
chain: NLNKPVIQPNFPSLAPGLMSHLSPTHSTWDDWGAGWIPRDCKSMVQGAGFSPNDIIPFNIHYDDCGQTWTFCRHKKSPLSELQILDMFGRLPVRMRSFIRHMVFVPGTRSAGSNGDNILVVGDGDITLFAHEIGHSLDSHAFDPSYGVPFSTGNVWVSNYNLDSAVSDSYAQSSQQENFAQETVISLFDKVVPGGIGTIQPNWRAIFHQYATLQGYIGNVIIPGGTCTHRLTDSPPVPMSGSAKSRRGLGLKPDVSLTPEVKEIEAIPMESSITMTSFNEQGKPSGTYVIHLK
B5: IFF21335 (protein)
chain: TLDKPVIQPNFPGNGLASLGQGLLDNLAPTHSTWDDWGAGWIPQDCKTLVEGAGFSASDVIPFNIHYDDCAQTWTFCRHKDSPLSEVQILDLFGRLPVRMRSFVRHLVFIPGNKSAGSSGDNVLMTGPVDITVYAHEIGHSLDSHAFDPSYGVPFSTGNVWISNYNLDSAVTDPYAQTSQQENFAQETVVSLYDKVVPGGIGTIQSNWQAIFHQYATLEGYIGDVIIPGGTCTHRLTDSPAVPMSGSAKLRRGLGPKPHVALSPEVEEIEAIPMKSSITMTSFDEAGKPNGTYVINL
B6: IFF21359 (protein)
chain: TLDKPVIKPPFPNGGLGSLGPDLMSSLPIAAHTTTDWDADHLPRDCKTLAQGAGFSPLDVSAFDIHYDDCKAQPWVFCRHKDSPLSKTDMTELFGRLPVRMRQFIRHIIALPGQRSAGSAGDNIQMNGDCEITVFIHETGHSLDSHAFDPKLGVPFSNGKAWTDAYHKDTAVTDDYGRTSQQENFAQETVVSVYDKNVEGGIGKIQPNAQAIRNAYTTLETYIGNIIIPGGECTHRLENSPSVPKADSARTRLVARAEPVGEGLTRIEPVPFGPILSVRY
B7: IFF21360 (protein)
chain: RLDKPVIKPPFPNGGGLGSLGPDLMSSLPIAAHTTSDWDSDHLPRDCKRLAQSAGFSPLDVDAFNIRFDDCKQQPWVFCRHKDAPLSKSNMTELFGRLPVRMRQYIRHIIALPGQRSAGSAGDNIQMNGDCEITVFIHETGHSLDSHAFDPKHGVPFSNSPVWKDAYDKDTAVTDDYAQTSQQENFAQETVVAVYDKNVKGGGIGKIQPNAQAIRNAYTTLEKYIGDIIIPGGECTHRLENSPAVPKVDSARTRLVAKSEPVGEGLTRIEPIPMGPITLARY
B8: IFF21338 (protein)
chain: NLNKPVITPNFPGNGLASLGPGLMNNLAPTHSTWDDWGAGWIPSDCKSMVQGAGFSPNDIIPFNIHYDDCAQTWTFCRHKNSPLSEIQILDIFGRLPVRMRQFVRHLVFVPGNKSAGSNGDNVLMVGDVDVTVFAHEIGHSLDSHAFDPSYGVPFSTGNVWVSNYNLDSAVPDPYAQSSQQENFAQQTVVSLYDKVVPGGIGTIQPNWQAIFHQYATLEGYIGNVIIPGGTCTHRLTDSAPVTMSGSKKSRRALGPKPKVSLSPEVKEIEAIPMESSITMTSFDEHGKPNGTYVIHL
B9: IFF21339 (protein)
chain: B8 chain with P149S, E265K
B10: IFF21337 (protein)
chain: B8 chain with P21Q, N25D, N26H, T73S, I87V, Q187E, V196A, N224D, E265K, I295V
B11: IFF21336 (protein)
chain: B8 chain with P21Q, N25D, N26H, S44Q, L192I, E265K, I295V
B12: IFF21340 (protein)
chain: B8 chain with S44A, T73S, L192I, E265K, I295V

Molecular target: T1, IFF05588

Row | Protein | Relative late peak area (centered, scaled, averaged over 5, 10 and 15 min) | Relative late peak area (centered, scaled, averaged over doses, 24 h; sample diluted 10-fold) | Relative late peak area (reverse phase chromatography, 24 h) | Relative late peak area (centered, scaled, averaged over doses, 24 h; sample diluted 2-fold) | Relative late peak area (centered, scaled, averaged over doses, 24 h; sample diluted 1-fold)
1 | B1 | 1.08 | 0.42 | 0.63 | – | –
2 | B2 | 1.04 | 0.38 | 0.61 | – | –
3 | B3 | 0.02 | – | – | 0.56 | –
4 | B4 | -0.63 | – | – | – | 0.42
5 | B5 | 0.67 | 0.3 | 0.66 | – | –
6 | B6 | 1.3 | 0.61 | 0.68 | – | –
7 | B7 | -0.58 | – | 0.66 | – | 0.62
8 | B8 | 1.11 | 0.59 | 0.6 | – | –
9 | B9 | -0.05 | – | – | 0.53 | –
10 | B10 | 0.9 | 0.52 | – | – | –
11 | B11 | -0.34 | – | – | 0.36 | –
12 | B12 | -0.31 | – | 0.33 | 0.37 | –
